Data published in the DeepSol protein solubility set.

Experiment: soluble on expression in E. coli; label from the status in PepcDB or PDB records

Sequence	soluble on expression in E. coli
MTKLQGLQGLKHIKAVVFDMDGTLCLPQPWMFPAMRNAIGLEDKSIDILHFIDTLPTEKEKKEAHDRIELVEAKAMKEMQPQPGLVDIMRYLTKNGISKNICTRNVGAPVETFVKRFIPSELSRFDYIVTREFRPTKPQPDPLLHIASKLNIRPLEMIMVGDSFDDMKSGRSAGCFTVLLKNHVNGHLLLEHKELVDVSVEDLSEIIELIQNMNKESF	not soluble
MGSDKIHHHHHHMVRPRIKLTEHLSTEEIEQSYRRCEDAQEKTRWLVIKLLNQQPQLSAQKVAEIVGFSGDWVRKIVRRYNKLGANGIINQQKLKPGGKKLALTNEQQQWLRQRLASPPEDGGLWSAPKVGELIRVQFGITLHVTTAWDYLKRLGFSLQQPRPLHTEAATFVQRQMFKTELTEFVRLLRFLHPHKSVEVWAEDEARLGLKPIVRRVWTPVGHRPNAVHRTRYQWLYTYGFVHPATGESFFLILPRVNIAVMQMALDAFAAEVNPHHHKIIVLLVDQAGWHTSKQLMLPAGIILFPLPAYTPQLQPTECVWSLLREAVANQMFSTLDELETVLISRCQWLMSHPQIVHGKVGFDWICQI	not soluble
MQKRDGHIHTPFCPHGSNDTLRQYAEEALKKGFESITFTEHAPLPPSFTDPTPLKDSAMAQASLERYIHEISGLKKEYRGQLSIRTGLEVDYIAEFEDEITLFLDTYGPYLDDSILSVHFLRTDSSYLCLDYDEHTFKELISACGSIEAVYEQYYRSIYSSIVASLGVYKPKRVGHITLVQKFIKLFPYSMSEHIRGLVSLCLNAIEENGMELDFNTSGLRKTYAGGIYIEDWMLNEAKQKKIPLVFGSDAHQAGDVGYAYEAFLERCLEHHHHHH	not soluble
MKKYSILLLPFILASCAPVSESQFTEQRLSELEIKVAKLEERQEKIEEQLEEINKRLDYITKSIAKREIKSYKEPEEEKPPFEEVKSTEDEKAEYENALELYKMKQLNEARDAFVEFIKKYPNSKYTDNAYFWLGKTFYELGNTERAKQIFNVLIKKCKSGELPDCNKLPDTYFMLVKISLDEGNIEEANRYLSILEEKFPDAEATQRAKELIYKTP	not soluble
MNCEKCNQNPATIQLYMNINGKRVEMPLCASCYAEVRNQANFGSNEFPGASGSPFDDIFRQLSGAANQANREQRSQANAQVQTQTAGGGNGILDEFGTNLTDMAKNEQLDPVIGRDKEIKRVIEILNRRNKNNPVLIGEPGVGKTAVVEGLANAIVAGDVPSKLMNKEVILLDVASLVSGTGIRGQFEERMKQLIKELQERKNTILFIDEVHTIVGAGSAEGSMDAGNILKPALARGDLQMIGATTLKEYRTIEKDAALERRFQPVTVSEPSTKETLTILNGLKPKYEDFHEVVYSPEALTAAVELSARYIQDRHLPDKAIDLMDEVGSKYNLSIEKLDENTVSERVARLEDEKNQALQMEDYEKAAKVRDEITRLEENKTSNSFSERPVIQASDIQAIIEEKTGIPVGRLQEDEQSKMKNLERNLTGKVIGQEDAVKKVAKAIRRSRVGLKSKNRPIGSFLFVGPTGVGKTELGRTLARELFGTSEAMIRLDMSEFMEKHSISKLIGSPPGYVGHEEAGQLTEKVRRNPYSIILLDEIEKAHPDVQHMFLQILEDGRLTDSQGRTVSFKDTVIIMTSNAGATDTEASVGFNTTTETKLEKGSDILAKLGAYFKPEFLNRLDSVIEFKSLEKDDLVQIIDLMLVDLNEMLAQEGVTIDVSKEVKEHLIDLGYDPKFGARPLRRTIQEHLEDTIADSLIDQPEAKNLVATLNDNKEITITEQVTA	not soluble
MSLRVRIAVIGKLDGFIKEGIKHYEKFLRRFCKPEVLEIKRVHRGSIEEIVRKETEDLTNRILPGSFVMVMDKRGEEVSSEEFADFLKDLEMKGKDITILIGGPYGLNEEIFAKAHRVFSLSKMTFTHGMTVLIVLEQIFRAFKIIHGENYHYEGGSHHHHHH	soluble
MGSDKIHHHHHHNEEIEKAVQPVEISFNTAVSKTTRATTLVNSAFTKFTAYAYSTTGAFADATKVNALISGAEFTKGENSAWGSGNSVFYWPATDQVSFFAFSPNTTKQLSWGAAVANTAPTLTYTVEGTVEKQEDLVVAEAMNKQKATSGSTEAVALNFKHALTKVGFKIKGEGSGVTYTLNKIVINAKNKGVYTYGATSTTNETTLGTWTIPSDATATAYTVEPTEALSITGADNGGTANETLVEADYTAMLIPQNLTGVTFEIYYKAEAGGAILCDKTTTPEEITFTDGTWTAGQSVAYVLTLKGVEKMSITGSVADSWDFTETPK	not soluble
MGSDKIHHHHHHMDAPYVSMWTSCSGGCSNNMYQLPANYPMKEKRDNEAEHTEGRLSKNERIERQLNSLYDFRFNIVKSRTEYRAANTSGLYQPVTKFALNSFRRKLDVTAGITTSAENIRMILESDFANKVHPIREYLTALPLLNPAGHGYIKKLLNTVQVANPGEWEEYFTKWLVGVVANAMNDTGCQNHTCLVLTGDNQGQFKTWWLDNLCPSSLKNYLFTGKIDPQSKDILTLIAEYLFINIDDQLKELNKQNENALKNLITTPAVKYRRPYDIYIEEYPHLASFMASVNGNEFLTDPTGNRRFLPFEVLHIDKPTAESINMDNVYSEIMYLYRQGVRYWFNDAEIEELHLTNAEFEVQTVEFEMLMQYFEKPTEEEESLFFMTTAQILTCLRDVCPMQLSEKRLGEALRKAGFKRVQKRISNCNYSVYGYRIKPVSIPYTDNDYG	not soluble
MPHPCLSCGACCAYFRVSFHWSEADPALGGNVPIELTEPLRIHERVMHGTSQSHPRCIALDAEIGYRSRCTIHERRPSVCAAVPASLEFGTRSQQCDTSRRAHGLHLLTEADWAGVTNTERNPLPNELEHHHHHH	soluble
MSLGEHILLNQTLSDVIHYFKSQRCGGVFDQQDRQVPVLNANQTVDVHGGWYDASGDVSKYLSHLSYANYLNPQQTPMVVWNILKGLSLLEGSEDIAAFTRTRLIEEALFGADFLVRMQNEKGFFYMTVFDKWSKDTAQREICAYETQLGHKFDDYQAGFRQGGGVAIAALAAASRLGVHGEYDQQKYRNAAENGYWHLKEHNTQYLNDGEENIIDEYCALLASVELFKATKETRYLEESRLWAQRLVARQMSDEQIQHFWSANQDGSRPYFHAAEAGLPGIALCEYLAIEDDSVQTESVKCIVNRACEFEIKISNKVTNPFGYPRQYVKGVNESKRDAFFVAHNNESGYWWQGENARLGSLATMAYLAQPHIASQEIQQQLSVFAQDALNWIVGLNPYDMCMLDGHGRNNPDYLPQYGFFNAKGGVCNGITGGFEDEEDIAFNPPAQKDDMLQNWRWGEQWIPHGAWYLLAIMSQAQHISQLATSKNIKEGHHHHHH	not soluble
MQNHVISLASAAERRAHIAATFGARGIPFQFFDALMPSERLEQAMAELVPGLSAHPYLSGVEKACFMSHAVLWKQALDEGLPYIAVFEDDVLLGEGAEKFLAEDAWLKERFDPDSAFIVRLETMFMHVLTSPSGVADYCGRAFPLLESEHWGTAGYIISKKAIRFFLQHFVMLQPEQIKPIDLMMFSDFFDKEGMPVYQVSPALCAQELHYAKFHDQNSALGSLIEHDRLLNRKQQRRDSPANTFKRRLIRALTKISLEHHHHHH	soluble
MALLPFFDLTNFESDASEELGWLKYVGRVQTRVFPQHFKDNLEKVRKISETIDVIVDTTAELGPEACVNLLNAGALAILVNEEMLNELADISPNRLVLKTDTTDIGKIEKLSQVAGSIQWIGSAENYPPDFFERASKIIHKAVMPEGGGRTLYLEFPEQPSMEVLKSFSVHSVVPVLSSSFLTVKPAEEPKKLSLADLILISANTDREDGLFSTLVVNELGIALGLVYSSKESVAESLKTGTGVYQSRKRGLWYKGASSGAVQHLIHIDVDCDEDCLRFVVYQTGKGFCHLDTLHCFGQASGLCQLEKTLIDRKNNAPEGSYTARLFSDPKLLRAKIMEEAEELCDATTKENVIWEMADLMYFAITRCVGSGVSLNDISRHLDLKHRKVTRRKGDAKVAWQEKLKDKGGVANTSYTA	soluble
HHHHHHHHHHMPPKGWRKDAQGNYPTTSYIKEQENITIQDLLFPKSTIVNLAREVPQQSGKKLLINKDASLALQRGATVFVNHLLLFAREIAKSQDKKSCSVDDVLSALDHIGHSALKGPVRDKLDEYQAAVEQRKKEKLDSGEVDADGDIDMGEDKENVPVEKVKEHDEIEEQGDALQDVEESSEKKQKTESQDVETRVQNLEQT	not soluble
MSLKQEKLALVESALEDFYGDQQFASSLRESVLYSIHAGGKRIRPFLLLEVLEALQVTIKPAHAQVATALEMIHTGSLIHDDLPAMDDDDYRRGRLTNHKKFGEAMAILAGDALFLDSYALIAQADLPSQIKVDLIANLSLASGSLGMVAGQVLDMEGEHQHLSLEELQTIHANKTGKLLAYPFQAAAIIAELSPEMQVKLKTVGELIGLAFQVRDDVLDVTASFEEIGKTPQKDLQAEKSTYPALLGLEESIAFCNQTLDQANEKLEEIAQQLPFETESIVSVVESLRINGEGHHHHHH	soluble
IPEEGGDELGAMARTLSLFRESAIEKKKLEDEAERQRRTIAAALEVISDGFVLYDSEDRILVANSKYCEIFPSHKPNTLRGRSFREIVEQNLEMGQVDLEGKSPQEWVDERVRLHRDPAGLVDEKRFGDKWVRISKRKIPD	not soluble
MKTLHSLSEQLGGLLANQQQILASAESCTGGGVAYWVTEVAGSSAWFDRSFVTYSNEAKQEMLGVRQATLQQFGAVSEQTVEEMALGALLHSKATLAAAISGIAGPGGGSAEKPVGTVCFGFASVQGWLKVETCHFTGDREQVRQQAIAHVLQSLIEHLAADQVQNVN	not soluble
SEAWEYFHLAPARAGHHPNQYATCRLCGRQVSRGPGVNVGTTALWKHLKSMHREELEKSGHGQ	soluble
SPLPVALQTRLAKRGILKHLEPEPEEEIIAEDYDDDPVDYEATRLEGLPPSWYKVFDPSCGLPYYWNADTDLVSWLSPHDPNSVVTKSAKKLRSSNADAEEKLDRSHDKSDRGHDKSDRSHEKLDRGHDKSDRGHDKSDRDRERGYDKVDRERERDRERDRDRGYDKADREEGKERRHHRREELAPYPKSKKAVSRKDEELDPMDPSSYSDAPRGTWSTGLPKRNEAKTGADTTAAGPLFQQRPYPSPGAVLRANAEASRTKQQD	soluble
TSDDHVPVDITDLLDRAAHDAARIYPDLDVSLVPSPTCIIVGLPAGLRLAVDNAIANAVKHGGATLVQLSAVSSRAGVEIAIDDNGSGVPEGERQVVFERFSRGSTASHSGSGLGLALVAQQAQLHGGTASLENSPLGGARLVLRLPGPS	soluble
MGSDKIHHHHHHMKRQAKIEIQNALVDLMAEYPFQEISTKMICAYCNINRSTFYDYYKDKFDLLDTINSKHKEKFQFLLSALHHNFENIKQDKLKLYKFFIIIAKYIKHNEQFFKDILVTYPMKTLFIDYINLARDYYQQIMNDYSTTVTNKQLYVTYIIGGQAGVFINWLSNGCNESPEEVADILLANTIKLQIQ	not soluble
MSLAYGSLLFKRFSITIKYRKLIVEHIEKGDLKLTEEFKNILRDLMVTTFKKADSILIEKCKAEEKHYSSCTGVVLLFIKDILVNAHIGDSRSVACTYSNSINLAQFLTIDHKPDQPLEYRRIVENGGSVEYLQNHNNKPFLRGGDFTRRRARGETPMQLQYSRAFGGKDLKPYGLSCVPDISIISLNQNNRLFIIATDGIWDLLSAQQSCDLSFYSQELGIQPARYLVNAVLEETRNRNTNCDNLTAICIMHIKNEGHHHHHH	soluble
EVKLLESGGGLAQPGGSLKLSCAASGFDFRRYWMTWVRQAPGKGLEWIGEINPDSRTINYMPSLKDKFIISRDNAKNSLYLQLSRLRSEDSALYYCVRLDFDVYNHYYVLDYWGQGTSVTVSSASTKGPSVFPLAPSSKSTSGGTAALGCLVKDYFPEPVTVSWNSGALTSGVHTFPAVLQSSGLYSLSSVVTVPSSSLGTQTYICNVNHKPSNTKVDKKVEPKSCD	soluble
